The target in test [1] is T1, CD73 on cell membrane surface (MDA-MB-231, U87-MG) (human, UniProt P21589 27-549).
T1 construct: whole, on cells; also called NT5E
T1 sequence (looked up): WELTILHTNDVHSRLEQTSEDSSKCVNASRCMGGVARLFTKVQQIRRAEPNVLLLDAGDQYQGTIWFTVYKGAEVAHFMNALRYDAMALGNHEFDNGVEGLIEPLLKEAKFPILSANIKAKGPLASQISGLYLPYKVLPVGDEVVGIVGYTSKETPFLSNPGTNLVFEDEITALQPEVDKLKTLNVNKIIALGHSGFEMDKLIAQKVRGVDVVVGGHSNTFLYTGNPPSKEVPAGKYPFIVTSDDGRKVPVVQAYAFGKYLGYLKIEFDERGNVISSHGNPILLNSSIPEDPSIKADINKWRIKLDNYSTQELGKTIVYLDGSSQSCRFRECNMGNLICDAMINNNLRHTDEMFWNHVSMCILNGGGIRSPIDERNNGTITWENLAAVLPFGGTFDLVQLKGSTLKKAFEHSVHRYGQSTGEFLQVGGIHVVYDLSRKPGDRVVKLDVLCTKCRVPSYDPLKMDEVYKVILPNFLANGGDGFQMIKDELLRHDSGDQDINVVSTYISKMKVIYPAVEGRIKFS
The test can be described thus: flow cytometry, MDA-MB-231 cells; antibody 11.11 nM. How it is done: (§1) MDA-MB-231 cells in logarithmic phase were digested with conventional trypsin and transferred to a 1.5 mL centrifuge tube at 3×10⁵ cells/tube. 500 μL of PBSA was added, and the mixture was centrifuged at 5600 rpm for 5 min to remove the supernatant. […] The system was mixed gently and uniformly, and then was incubated on ice for 1 h. Then 500 μL of PBSA was added, and the mixture was centrifuged at 5600 rpm for 5 min to remove the supernatant. […] 500 μL of PBSA was added, and the mixture was centrifuged at 5600 rpm for 5 min to remove the supernatant. At last, 200 μL of PBSA was added to resuspend cell precipitates, and the mixture was transferred to a flow tube for FACSCalibur detection.
Background: In flow cytometry, cells or beads pass a laser one at a time.

The target of test [2] is T1, CD73 on cell membrane surface …. Nature of the test: flow cytometry, MDA-MB-231 cells; antibody 3.70 nM. How it is done: as §1
For test [3] the target is unchanged. Nature of the test: flow cytometry, MDA-MB-231 cells; antibody 1.23 nM. Here is the method: as §1
Test [4] deals with T2, PD-1 on 293T-PD1 cell surface (human, UniProt Q15116 25-288).
T2 construct: whole, on cells
T2 sequence (Q15116 25-288): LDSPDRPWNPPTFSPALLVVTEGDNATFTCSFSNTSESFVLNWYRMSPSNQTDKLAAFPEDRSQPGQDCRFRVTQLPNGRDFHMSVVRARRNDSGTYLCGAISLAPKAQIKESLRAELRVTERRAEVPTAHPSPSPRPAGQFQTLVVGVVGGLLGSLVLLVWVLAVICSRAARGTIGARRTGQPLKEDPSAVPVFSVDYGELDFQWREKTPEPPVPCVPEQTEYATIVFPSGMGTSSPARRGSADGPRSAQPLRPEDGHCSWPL
Nature of the test: flow cytometry, 293T-PD1 cells; antibody 3.70 nM. How it is done: (§2) 500 μL of PBSA was added, and the mixture was centrifuged at 5600 rpm for 5 min to remove the supernatant. […] The system was mixed gently and uniformly, and then was incubated on ice for 1 h. Then 500 μL of PBSA was added, and the mixture was centrifuged at 5600 rpm for 5 min to remove the supernatant. […] 500 μL of PBSA was added, and the mixture was centrifuged at 5600 rpm for 5 min to remove the supernatant. At last, 200 μL of PBSA was added to resuspend cell precipitates, and the mixture was transferred to a flow tube for FACSCalibur detection.

The target of test [5] is T1, CD73 on cell membrane surface …. Nature of the test: flow cytometry, MDA-MB-231 cells; antibody 100.00 nM. Here is the method:
as §1

For test [6], the target named is T2, PD-1 on 293T-PD1 cell surface. Nature of the test: flow cytometry, 293T-PD1 cells; antibody 11.11 nM. How it is done: as §2
For the next test, the target named is T3, human NT5E-Biotin (human, UniProt P21589 27-552, limits assumed, biotin label, site not stated).
T3 construct: Captured on streptavidin-coated plates; also called human NTSE-Biotin
T3 sequence (looked up): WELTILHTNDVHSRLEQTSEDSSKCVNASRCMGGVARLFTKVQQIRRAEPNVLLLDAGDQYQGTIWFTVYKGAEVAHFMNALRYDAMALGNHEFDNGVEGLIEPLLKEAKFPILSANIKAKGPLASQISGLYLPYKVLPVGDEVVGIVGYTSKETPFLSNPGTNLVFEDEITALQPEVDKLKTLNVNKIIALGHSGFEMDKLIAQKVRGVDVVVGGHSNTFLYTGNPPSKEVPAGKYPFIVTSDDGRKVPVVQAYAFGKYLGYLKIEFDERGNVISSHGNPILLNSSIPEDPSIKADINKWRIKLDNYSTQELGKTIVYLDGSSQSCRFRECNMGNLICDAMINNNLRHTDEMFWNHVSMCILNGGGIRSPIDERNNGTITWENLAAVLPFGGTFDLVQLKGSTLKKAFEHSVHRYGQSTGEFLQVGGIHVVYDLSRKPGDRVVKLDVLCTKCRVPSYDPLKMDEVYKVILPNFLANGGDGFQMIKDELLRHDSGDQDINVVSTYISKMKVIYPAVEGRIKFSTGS
Nature of the test: ELISA, NT5E-biotin on streptavidin. Here is the method: A microplate was coated with streptavidin at 2 μg/mL and then incubated at 4° C. overnight. After incubation, the microplate coated with streptavidin was washed once with PBST, and blocked with a PBS solution containing 1% BSA as a microplate blocking solution at 37° C. for 2 h. After blocking, the microplate was washed 3 times with PBST. Then, 0.5 μg/mL antigen human NTSE-Biotin was added and incubated at 37° C. for 30 min. Then, the plate was washed 3 times with PBST. The antibodies serially diluted with PBST solution (the dilution gradients for the antibody are shown in Table 3) were added to wells of the microplate. The microplate containing the test antibodies was incubated at 37° C. for 30 min, and then washed 3 times with PBST. […] After incubation, the plate was washed 4 times with PBST, TMB (Neogen, 308177) was added in the dark for chromogenesis for 5 min, and then a stop solution was added to terminate chromogenic reaction. The microplate was put into a microplate reader immediately, and the OD value of each well in the microplate was read at 450 nm. The data were analyzed and processed by SoftMax Pro 6.2.1.
Background: An ELISA detects its analyte on a solid surface through an enzyme-linked reagent.

The target in test [7] is T2, PD-1 on 293T-PD1 cell surface. Nature of the test: flow cytometry, 293T-PD1 cells; antibody 100.00 nM. How it is done: as §2
The target is the same in test [8]. The test can be described thus: flow cytometry, 293T-PD1 cells; antibody 0.41 nM. How it is done:
as §2

Among the data in patent US20230151111A1 (AKESO BIOPHARMA, published 2023) are FACS signal and EC50 values, retold here.

B1: P1D7V01 (bispecific antibody, human IgG1, kappa)
heavy: not shown
light: DIQMTQSPSSMSASVGDRVTFTCRASQDINTYLSWFQQKPGKSPKTLIYRANRLVSGVPSRFSGSGSGQDYTLTISSLQPEDMATYYCLQYDEFPLTFGAGTKLELKRTVAAPSVFIFPPSDEQLKSGTASVVCLLNNFYPREAKVQWKVDNALQSGNSQESVTEQDSKDSTYSLSSTLTLSKADYEKHKVYACEVTHQGLSSPVTKSFNRGEC
notes: Morrison form IgG-scFv
The EC50 is the concentration giving half of the maximal effect. Lower therefore signals a more potent agent. B1: the FACS signal in test [1] is 561; in test [2], 572; in [3] it was 272; in test [4], 531; in [5], 706; in test [6], 578. In addition, the values for the FACS signal in [7] and in test [8] were 531 and 151, respectively. For the same molecule, in the test with human NT5E-Biotin, the EC50 came out at 0.063 nM.

B2: P1D7V03 (bispecific antibody, human IgG1, kappa)
heavy: not shown
light: DIQMTQSPSSMSASVGDRVTFTCRASQDINTYLSWFQQKPGKSPKTLIYRANRLVSGVPSRFSGSGSGQDYTLTISSLQPEDMATYYCLQYDEFPLTFGAGTKLELKRTVAAPSVFIFPPSDEQLKSGTASVVCLLNNFYPREAKVQWKVDNALQSGNSQESVTEQDSKDSTYSLSSTLTLSKADYEKHKVYACEVTHQGLSSPVTKSFNRGEC
notes: Morrison form IgG-scFv
Turning to B2, the FACS signal is 525 in test [1]; 458 in [2]; 233 in [3]; 385 in test [4]; 678 in test [5]; 459 in test [6]. In addition, the FACS signal in test [7] turned out to be 343; in [8], 118. The EC50 with human NT5E-Biotin was 0.068 nM.
